From PMC2912912 (BMC Structural Biology, 2010)
Values joined by “and” are separate entries in the source; they are usually repeats but may differ in a detail not shown here. Identical values can stand only once.

B1: IpgC^21-155 (invasion plasmid gene C, residues 21-155) (domain or fragment)
chain: SGATLKDINAIPDDMMDDIYSYAYDFYNKGRIEEAEVFFRFLCIYDFYNVDYIMGLAAIYQIKEQFQQAADLYAVAFALGKNDYTPVFHTGQCQLRLKAPLKAKECFELVIQHSNDEKLKIKAQSYLDAIQDIKE
B2: full-length IpgC (invasion plasmid gene C) (natural protein)
chain: MSLNITENESISTAVIDAINSGATLKDINAIPDDMMDDIYSYAYDFYNKGRIEEAEVFFRFLCIYDFYNVDYIMGLAAIYQIKEQFQQAADLYAVAFALGKNDYTPVFHTGQCQLRLKAPLKAKECFELVIQHSNDEKLKIKAQSYLDAIQDIKE
B3: IpgC^10-155 (invasion plasmid gene C, residues 10-155) (domain or fragment)
chain: SISTAVIDAINSGATLKDINAIPDDMMDDIYSYAYDFYNKGRIEEAEVFFRFLCIYDFYNVDYIMGLAAIYQIKEQFQQAADLYAVAFALGKNDYTPVFHTGQCQLRLKAPLKAKECFELVIQHSNDEKLKIKAQSYLDAIQDIKE
notes: source: E. coli BL21 (DE3), purified (Ni2+-NTA Sepharose, TEV digestion, Resource Q)

Biological target: the molecule itself
Assay: SEC; analytical gel filtration, Tricorn Superdex 200 10/300, samples 5 mg/mL, 20 mM Tris-HCl pH 8.0, 200 mM NaCl, 1 mM DTT, 4°C; molecular weight against globular standards

| Protein | stoichiometry N |
| --- | --- |
| B1 | 4 and 2 |
| B2 | 2 |
| B3 | 2 |
